In patent publication US20240352111A1 (Regeneron, published 2024):

T1: mArtemin-MMH (mouse)
T1 construct: also called msArtemin-MMH; msARTN.mmh
T1 chain: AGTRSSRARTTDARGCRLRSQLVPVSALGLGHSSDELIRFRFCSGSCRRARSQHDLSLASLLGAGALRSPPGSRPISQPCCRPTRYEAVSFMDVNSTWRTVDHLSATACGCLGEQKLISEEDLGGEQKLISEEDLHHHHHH

T2: hArtemin-MMH (human)
T2 construct: also called hARTN.mmh; hARTN (A108-G220).mmh
T2 chain: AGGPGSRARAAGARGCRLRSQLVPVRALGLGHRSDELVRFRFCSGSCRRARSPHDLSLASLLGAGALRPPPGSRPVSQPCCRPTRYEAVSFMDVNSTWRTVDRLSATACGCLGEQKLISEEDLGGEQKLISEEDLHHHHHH

T3: MfArtemin-MMH (cynomolgous monkey (Macaca fascicularis))
T3 construct: also called mfARTN.mmh; mfARTN (A108-G22).mmh
T3 chain: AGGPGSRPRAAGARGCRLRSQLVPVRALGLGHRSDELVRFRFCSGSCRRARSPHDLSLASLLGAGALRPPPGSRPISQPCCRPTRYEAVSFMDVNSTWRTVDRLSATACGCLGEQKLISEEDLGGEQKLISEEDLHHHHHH


Tests used:
mArtemin-MMH [1] = biological target: T1, mArtemin-MMH; test: BLI (Octet HTX), mAb captured on AHC tips, artemin at 15 nM, 25 C
Method: (§1) The entire experiment was performed at 25° C. in 10 mM HEPES, 150 mM NaCl, 3 mM EDTA, 0.02% NaN3 and 0.05% v/v Surfactant Tween-20, 1 mg/mL BSA, pH7.4 (HBS-EBT) buffer with the plate shaking at a speed of 1000 rpm. Different Artemin mAbs were first captured onto anti-human antibody (AHC) coated Octet biosensor tips (Fortebio Inc, #18-5064) by submerging the biosensor tips for 40 seconds in wells containing 2 μg/mL of Artemin mAb. […] All the Artemin and Artemin mAb samples were prepared in HBS-EBT buffer. The real-time binding response was monitored during the entire course of the experiment and the binding response at the end of every step was recorded.

hArtemin-MMH [2] = biological target: T2, hArtemin-MMH; test: as above
Method: as §1

MfArtemin-MMH [3] = biological target: T3, MfArtemin-MMH; test: as above
Method: as §1

MfArtemin-MMH [4] = biological target: T3, MfArtemin-MMH; test: SPR Biacore T200, MfArtemin-MMH captured by anti-myc mAb, mAb injected, 25 C
Method: The equilibrium dissociation constant (KD) for Artemin binding to each of Artemin monoclonal antibodies (mAbs) H4H33331P, H4H33335P, H4H33336P, and H4H33349P was determined using a real-time surface plasmon resonance Biacore T200 biosensor. All binding studies were performed in 10 mM HEPES, 150 mM NaCl, 3 mM EDTA, and 0.05% v/v Surfactant Tween-20, pH 7.4 (HBS-ET) running buffer at 25° C. The Biacore CM4 sensor chip surface was first derivatized by amine coupling with anti-myc mAb to capture hArtemin-MMH, MfArtemin-MMH, or mArtemin-MMH. Different concentrations of Artemin mAbs (60-2.2 nM, 3-fold serial dilution) prepared in […] running buffer were injected over the Artemin-captured surfaces for 3 min at a flow rate of 50 μL/min and their dissociation in HBS-ET running buffer was monitored for 5 minutes. At the end of each cycle, the Artemin-captured surfaces were regenerated using a 6 sec injection of 20 mM phosphoric acid.
The association rate (kₐ) and dissociation rate (kd) were determined by fitting the real-time binding sensorgrams to a 1:1 binding model with mass transport limitation using Scrubber 2.0c curve-fitting software. Binding dissociation equilibrium constant (KD) and dissociative half-life (t½) were calculated from the kinetic rates as: KD (M)=kd/kₐ, and t_{1/2} (min)=[In2/(60*kd)].

mArtemin-MMH [5] = biological target: T1, mArtemin-MMH; test: BLI (Octet HTX), mAb captured on AHC tips, artemin at 3.75 nM, 25 C
Method: as §1

hArtemin-MMH [6] = biological target: T2, hArtemin-MMH; test: as above
Method: as §1

MfArtemin-MMH [7] = biological target: T3, MfArtemin-MMH; test: as above
Method: as §1

mArtemin-MMH [8] = biological target: T1, mArtemin-MMH; test: blocking ELISA, antibody blocks 150 pM msARTN.mmh binding to plate-coated hGFRa3.hFc; * below lower limit of assay (3.75E-11 M)
Method: (§2) Experiments were carried out using the following procedures. Plates were coated with hGFRa3.hFc at 2 μg/ml in PBS on a 96-well microtiter plate at 4° C. overnight for all three assays. […] In other microtiter plates, a constant amount of either 75 pM hARTN.mmh, 400 pM mfARTN.mmh, or 150 pM msARTN.mmh were separately bound with anti-ARTN antibodies and an irrelevant IgG4 antibody control at a serial dilution series from 0.0017 nM to 100 nM in PBS+0.5% BSA. After a one-hour incubation, the mixture solutions were transferred to microtiter plates coated with hGFRa3.hFc. After one hour of incubation at RT, the wells were washed with PBST, and plate-bound ARTN was detected with an anti-penta-His antibody conjugated with horseradish peroxidase (HRP) (Qiagen). The plates were then developed using TMB substrate solution (BD Biosciences, #555214) according to manufacturer's recommendation and absorbance at 450 nm was measured on a Victor X5 plate reader.
(§3) Binding data were analyzed using a sigmoidal dose-response model within Prism™ software (GraphPad). […] If the calculated IC50 value was below the LLOA, less than LLOA was reported. Percent blocking at 100 nM antibody was calculated based on the background-corrected binding signal observed at the highest antibody concentration tested using the formula listed below and reported for all tested antibodies: […]

MfArtemin-MMH [9] = biological target: T3, MfArtemin-MMH; test: BLI (Octet HTX), mAb captured on AHC tips, artemin at 30 nM, 25 C
Method: as §1

MfArtemin-MMH [10] = biological target: T3, MfArtemin-MMH; test: blocking ELISA, antibody blocks 400 pM mfARTN.mmh binding to plate-coated hGFRa3.hFc; * below lower limit of assay (1.00E-10 M)
Method: as §2, §3

Binder | Artemin Binding Response (nm) (mArtemin-MMH [1]) | Artemin Binding Response (nm) (hArtemin-MMH [2]) | Artemin Binding Response (nm) (MfArtemin-MMH [3]) | 60 nM Artemin mAb Bound (RU) (MfArtemin-MMH [4]) | Kd (MfArtemin-MMH [4]) [nM] | koff (MfArtemin-MMH [4]) [s⁻¹] | kon (MfArtemin-MMH [4]) [M⁻¹ s⁻¹] | t½ (MfArtemin-MMH [4]) [h] | Artemin Binding Response (nm) (mArtemin-MMH [5]) | Artemin Binding Response (nm) (hArtemin-MMH [6]) | Artemin Binding Response (nm) (MfArtemin-MMH [7]) | IC50 (mArtemin-MMH [8]) [nM] | Artemin Binding Response (nm) (MfArtemin-MMH [9]) | IC50 (MfArtemin-MMH [10]) [nM]
H4H33331P (antibody, human IgG4 S228P, kappa, V domains shown, Fully human antibody (human variable and constant domains) from a VELOCIMMUNE mouse; also called Artemin mAb; anti-ARTN antibody) VH: EVQLVESGGDLVQPGGSLKLSCAASGFTFSGSAMHWVRQASGKGLEWVGRIRNKVHRYATEYGASVKGRFTISRDDSKNTAYLQMNSLKIEDTAVYYCVVVVPGSIEAFDIWGQGTMVTVSS VL: DIQMTQSPSSLSASVGDRVTITCRASQSISTYLNWYQQKPGKAPNLLIYAASTLESGVPSRFSGSGSGTDFTLTISSLQPEDFEIYYCQQSYNIPWTFGQGTKVEIKR | 0.08 | 0.11 | 0.03 | 5 | 1.51 | 0.000199 | 131000 | 0.967 | 0.03 | 0.02 | 0 | < 0.0375 | 0.09 | 
H4H33349P (antibody, human IgG4 S228P, kappa, V domains shown, Fully human antibody; also called Artemin mAb; anti-ARTN antibody) VH: QVQLVESGGGVVQPGRSLRLSCEASGFTFSDYDLHWVRQAPGKGLEWVAFISNDGSNEYYPKSVKGRFSISRDNSKNTLYLQMNSLRAEDTAVYHCTKERDYYYDSSGSLDYWGQGTLVTVSS VL: DIQMTQSPSSLSASVGDRVTITCRASQTINNYLNWYQQKPGKAPKLLIYTTSGLQSGVPSRFSGRGSGTDFTLAISSLQPEDFATYYCQQSYHSPFTFGPGTKVDIKR | 0.11 | 0.11 | 0.09 | 14 | 0.21 | 9.6e-05 | 457000 | 2 | 0.07 | 0.07 | 0.02 | 0.00765 | 0.12 | 0.0302
H4H33336P (antibody, human IgG4 S228P, kappa, V domains shown, Fully human antibody; also called Artemin mAb; anti-ARTN antibody) VH: QVQLVESGGGVVQPGRSLRLSCVASGFILSHYGMHWVRQAPGKGLEWVAVIWFDGTNKYYADSVKGRFTVSRDNSKNTLYMQMNSLRAEDTAVYYCARDPPPARRGNYNGMDVWGQGTTVTVSS VL: DIQMTQSPSSLSASVGDRVTITCRASQDIRNDLGWYQQKPGKAPKRLIFGASSLQSGVPLRFSGSGSGTEFTLTINNLQPEDFATFYCLQDNSYPWTFGQGTKVEIKR | 0.01 | 0.09 | 0.03 | 11 | 0.111 | 2.3e-05 | 207000 | 8.37 | 0.01 | 0.03 | 0.01 |  | 0.06 | 0.075
